According to paper PMC11533501:

Key:
[1] = molecular target: dynamic microtubules grown from coverslip-anchored biotinylated GMPcPP seeds (bovine brain tubulin) (bovine) (UniProt Q6B856); test: laser trap bidirectional sliding friction assay; beads decorated sparsely with native kinetochore particles on the sides of coverslip-anchored dynamic microtubules; constant force 0.5-3 pN along the axis, direction reversed periodically; speeds at 1 ± 0.5 pN
[2] = molecular target: dynamic microtubules grown from coverslip-anchored biotinylated GMPcPP seeds (bovine brain tubulin) (bovine) (UniProt Q6B856); test: laser trap rupture force assay; kinetochore particles sparsely on anti-His polystyrene beads, attached near the tips of dynamic microtubules grown from coverslip-anchored seeds; preload about 1 pN, then force ramp 0.25 pN/s until detachment; growth buffer (BRB80, 1 mM GTP, tubulin)
[3] = molecular target: dynamic microtubules grown from coverslip-anchored biotinylated GMPcPP seeds (bovine brain tubulin) (bovine) (UniProt Q6B856); test: laser trap bidirectional sliding friction assay; anti-His beads densely coated with recombinant Ndc80c (about 3,000 complexes a bead, not single-molecule conditions) on the sides of coverslip-anchored dynamic microtubules; constant force along the axis, direction reversed; speeds at 1 ± 0.5 pN

native kinetochore particles isolated from yeast (Dsn1-6His-3Flag) (from UniProt P40568 1-576) (complex)
mean sliding speed of side-attached beads under 1 pN toward the minus end [1]: 674 nm·s^-1 | mean sliding speed of side-attached beads under 1 pN toward the plus end [1]: 109 nm·s^-1 | mean rupture strength at microtubule minus ends [2]: 3.3 pN | mean rupture strength at microtubule plus ends [2]: 9.7 pN

recombinant human Ndc80 complex (from UniProt O14777 1-642; Q9BZD4 1-464; Q8NBT2 1-197; Q9HBM1 1-224)
mean sliding speed of side-attached beads under 1 pN toward the minus end [3]: 464 nm·s^-1 | mean sliding speed of side-attached beads under 1 pN toward the plus end [3]: 130 nm·s^-1
